# Experimental data published in paper PMC11446282.
# Test system: PP2A-B55α
# Assay: Single alanine mutational scan, YFP-tagged interactors immunoprecipitated from HeLa cells, Western blot
# Assay type: binding, human
# Conditions: single alanine mutant of YFP-tagged ZDS1
row,Molecule,Experimental % binding [%]
1,"ZDS1 L868: ZDS1, L868 to alanine (protein, UniProt P50111 1-915, looked up, variant L868A) Protein ZDS1: MSNRDNESMLRTTSSDKAIASQRDKRKSEVLIAAQSLDNEIRSVKNLKRLSIGSMDLLIDPELDIKFGGESSGRRSWSGTTSSSASMPSDTTTVNNTRYSDPTPLENLHGRGNSGIESSNKTKQGNYLGIKKGVHSPSRKLNANVLKKNLLWVPANQHPNVKPDNFLELVQDTLQNIQLSDNGEDNDGNSNENNDIEDNGEDKESQSYENKENNTINLNRGLSRHGNASLIRRPSTLRRSYTEFDDNEDDDNKGDSASETVNKVEERISKIKERPVSLRDITEELTKISNSAGLTDNDAITLARTLSMAGSYSDKKDQPQPEGHYDEGDIGFSTSQANTLDDGEFASNMPINNTMTWPERSSLRRSRFNTYRIRSQEQEKEVEQSVDEMKNDDEERLKLTKNTIKVEIDPHKSPFRQQDEDSENMSSPGSIGDFQDIYNHYRQSSGEWEQEMGIEKEAEEVPVKVRNDTVEQDLELREGTTDMVKPSATDDNKETKRHRRRNGWTWLNNKMSREDDNEENQGDDENEENVDSQRMELDNSKKHYISLFNGGEKTEVSNKEEMNNSSTSTATSQTRQKIEKTFANLFRRKPHHKHDASSSPSSSPSSSPSIPNNDAVHVRVRKSKKLGNKSGREPVEPIVLRNRPRPHRHHHSRHGSQKISVKTLKDSQPQQQIPLQPQLEGAIEIEKKEESDSESLPQLQPAVSVSSTKSNSRDREEEEAKKKNKKRSNTTEISNQQHSKHVQKENTDEQKAQLQAPAQEQVQTSVPVQASAPVQNSAPVQTSAPVEASAQTQAPAAPPLKHTSILPPRKLTFADVKKPDKPNSPVQFTDSAFGFPLPLLTVSTVIMFDHRLPINVERAIYRLSHLKASNSKRGLREQVLLSNFMYAYLNLVNHTLYMEQVAHDKEQQQQQQQQP",56
2,"ZDS1 S869: ZDS1, S869 to alanine (protein, UniProt P50111 1-915, looked up, variant S869A) Protein ZDS1: MSNRDNESMLRTTSSDKAIASQRDKRKSEVLIAAQSLDNEIRSVKNLKRLSIGSMDLLIDPELDIKFGGESSGRRSWSGTTSSSASMPSDTTTVNNTRYSDPTPLENLHGRGNSGIESSNKTKQGNYLGIKKGVHSPSRKLNANVLKKNLLWVPANQHPNVKPDNFLELVQDTLQNIQLSDNGEDNDGNSNENNDIEDNGEDKESQSYENKENNTINLNRGLSRHGNASLIRRPSTLRRSYTEFDDNEDDDNKGDSASETVNKVEERISKIKERPVSLRDITEELTKISNSAGLTDNDAITLARTLSMAGSYSDKKDQPQPEGHYDEGDIGFSTSQANTLDDGEFASNMPINNTMTWPERSSLRRSRFNTYRIRSQEQEKEVEQSVDEMKNDDEERLKLTKNTIKVEIDPHKSPFRQQDEDSENMSSPGSIGDFQDIYNHYRQSSGEWEQEMGIEKEAEEVPVKVRNDTVEQDLELREGTTDMVKPSATDDNKETKRHRRRNGWTWLNNKMSREDDNEENQGDDENEENVDSQRMELDNSKKHYISLFNGGEKTEVSNKEEMNNSSTSTATSQTRQKIEKTFANLFRRKPHHKHDASSSPSSSPSSSPSIPNNDAVHVRVRKSKKLGNKSGREPVEPIVLRNRPRPHRHHHSRHGSQKISVKTLKDSQPQQQIPLQPQLEGAIEIEKKEESDSESLPQLQPAVSVSSTKSNSRDREEEEAKKKNKKRSNTTEISNQQHSKHVQKENTDEQKAQLQAPAQEQVQTSVPVQASAPVQNSAPVQTSAPVEASAQTQAPAAPPLKHTSILPPRKLTFADVKKPDKPNSPVQFTDSAFGFPLPLLTVSTVIMFDHRLPINVERAIYRLSHLKLANSKRGLREQVLLSNFMYAYLNLVNHTLYMEQVAHDKEQQQQQQQQP",77
3,"ZDS1 R873: ZDS1, R873 to alanine (protein, UniProt P50111 1-915, looked up, variant R873A) Protein ZDS1: MSNRDNESMLRTTSSDKAIASQRDKRKSEVLIAAQSLDNEIRSVKNLKRLSIGSMDLLIDPELDIKFGGESSGRRSWSGTTSSSASMPSDTTTVNNTRYSDPTPLENLHGRGNSGIESSNKTKQGNYLGIKKGVHSPSRKLNANVLKKNLLWVPANQHPNVKPDNFLELVQDTLQNIQLSDNGEDNDGNSNENNDIEDNGEDKESQSYENKENNTINLNRGLSRHGNASLIRRPSTLRRSYTEFDDNEDDDNKGDSASETVNKVEERISKIKERPVSLRDITEELTKISNSAGLTDNDAITLARTLSMAGSYSDKKDQPQPEGHYDEGDIGFSTSQANTLDDGEFASNMPINNTMTWPERSSLRRSRFNTYRIRSQEQEKEVEQSVDEMKNDDEERLKLTKNTIKVEIDPHKSPFRQQDEDSENMSSPGSIGDFQDIYNHYRQSSGEWEQEMGIEKEAEEVPVKVRNDTVEQDLELREGTTDMVKPSATDDNKETKRHRRRNGWTWLNNKMSREDDNEENQGDDENEENVDSQRMELDNSKKHYISLFNGGEKTEVSNKEEMNNSSTSTATSQTRQKIEKTFANLFRRKPHHKHDASSSPSSSPSSSPSIPNNDAVHVRVRKSKKLGNKSGREPVEPIVLRNRPRPHRHHHSRHGSQKISVKTLKDSQPQQQIPLQPQLEGAIEIEKKEESDSESLPQLQPAVSVSSTKSNSRDREEEEAKKKNKKRSNTTEISNQQHSKHVQKENTDEQKAQLQAPAQEQVQTSVPVQASAPVQNSAPVQTSAPVEASAQTQAPAAPPLKHTSILPPRKLTFADVKKPDKPNSPVQFTDSAFGFPLPLLTVSTVIMFDHRLPINVERAIYRLSHLKLSNSKAGLREQVLLSNFMYAYLNLVNHTLYMEQVAHDKEQQQQQQQQP",15
4,"ZDS1 K872: ZDS1, K872 to alanine (protein, UniProt P50111 1-915, looked up, variant K872A) Protein ZDS1: MSNRDNESMLRTTSSDKAIASQRDKRKSEVLIAAQSLDNEIRSVKNLKRLSIGSMDLLIDPELDIKFGGESSGRRSWSGTTSSSASMPSDTTTVNNTRYSDPTPLENLHGRGNSGIESSNKTKQGNYLGIKKGVHSPSRKLNANVLKKNLLWVPANQHPNVKPDNFLELVQDTLQNIQLSDNGEDNDGNSNENNDIEDNGEDKESQSYENKENNTINLNRGLSRHGNASLIRRPSTLRRSYTEFDDNEDDDNKGDSASETVNKVEERISKIKERPVSLRDITEELTKISNSAGLTDNDAITLARTLSMAGSYSDKKDQPQPEGHYDEGDIGFSTSQANTLDDGEFASNMPINNTMTWPERSSLRRSRFNTYRIRSQEQEKEVEQSVDEMKNDDEERLKLTKNTIKVEIDPHKSPFRQQDEDSENMSSPGSIGDFQDIYNHYRQSSGEWEQEMGIEKEAEEVPVKVRNDTVEQDLELREGTTDMVKPSATDDNKETKRHRRRNGWTWLNNKMSREDDNEENQGDDENEENVDSQRMELDNSKKHYISLFNGGEKTEVSNKEEMNNSSTSTATSQTRQKIEKTFANLFRRKPHHKHDASSSPSSSPSSSPSIPNNDAVHVRVRKSKKLGNKSGREPVEPIVLRNRPRPHRHHHSRHGSQKISVKTLKDSQPQQQIPLQPQLEGAIEIEKKEESDSESLPQLQPAVSVSSTKSNSRDREEEEAKKKNKKRSNTTEISNQQHSKHVQKENTDEQKAQLQAPAQEQVQTSVPVQASAPVQNSAPVQTSAPVEASAQTQAPAAPPLKHTSILPPRKLTFADVKKPDKPNSPVQFTDSAFGFPLPLLTVSTVIMFDHRLPINVERAIYRLSHLKLSNSARGLREQVLLSNFMYAYLNLVNHTLYMEQVAHDKEQQQQQQQQP",23
5,"ZDS1 N870: ZDS1, N870 to alanine (protein, UniProt P50111 1-915, looked up, variant N870A) Protein ZDS1: MSNRDNESMLRTTSSDKAIASQRDKRKSEVLIAAQSLDNEIRSVKNLKRLSIGSMDLLIDPELDIKFGGESSGRRSWSGTTSSSASMPSDTTTVNNTRYSDPTPLENLHGRGNSGIESSNKTKQGNYLGIKKGVHSPSRKLNANVLKKNLLWVPANQHPNVKPDNFLELVQDTLQNIQLSDNGEDNDGNSNENNDIEDNGEDKESQSYENKENNTINLNRGLSRHGNASLIRRPSTLRRSYTEFDDNEDDDNKGDSASETVNKVEERISKIKERPVSLRDITEELTKISNSAGLTDNDAITLARTLSMAGSYSDKKDQPQPEGHYDEGDIGFSTSQANTLDDGEFASNMPINNTMTWPERSSLRRSRFNTYRIRSQEQEKEVEQSVDEMKNDDEERLKLTKNTIKVEIDPHKSPFRQQDEDSENMSSPGSIGDFQDIYNHYRQSSGEWEQEMGIEKEAEEVPVKVRNDTVEQDLELREGTTDMVKPSATDDNKETKRHRRRNGWTWLNNKMSREDDNEENQGDDENEENVDSQRMELDNSKKHYISLFNGGEKTEVSNKEEMNNSSTSTATSQTRQKIEKTFANLFRRKPHHKHDASSSPSSSPSSSPSIPNNDAVHVRVRKSKKLGNKSGREPVEPIVLRNRPRPHRHHHSRHGSQKISVKTLKDSQPQQQIPLQPQLEGAIEIEKKEESDSESLPQLQPAVSVSSTKSNSRDREEEEAKKKNKKRSNTTEISNQQHSKHVQKENTDEQKAQLQAPAQEQVQTSVPVQASAPVQNSAPVQTSAPVEASAQTQAPAAPPLKHTSILPPRKLTFADVKKPDKPNSPVQFTDSAFGFPLPLLTVSTVIMFDHRLPINVERAIYRLSHLKLSASKRGLREQVLLSNFMYAYLNLVNHTLYMEQVAHDKEQQQQQQQQP",49
6,"ZDS1 S871: ZDS1, S871 to alanine (protein, UniProt P50111 1-915, looked up, variant S871A) Protein ZDS1: MSNRDNESMLRTTSSDKAIASQRDKRKSEVLIAAQSLDNEIRSVKNLKRLSIGSMDLLIDPELDIKFGGESSGRRSWSGTTSSSASMPSDTTTVNNTRYSDPTPLENLHGRGNSGIESSNKTKQGNYLGIKKGVHSPSRKLNANVLKKNLLWVPANQHPNVKPDNFLELVQDTLQNIQLSDNGEDNDGNSNENNDIEDNGEDKESQSYENKENNTINLNRGLSRHGNASLIRRPSTLRRSYTEFDDNEDDDNKGDSASETVNKVEERISKIKERPVSLRDITEELTKISNSAGLTDNDAITLARTLSMAGSYSDKKDQPQPEGHYDEGDIGFSTSQANTLDDGEFASNMPINNTMTWPERSSLRRSRFNTYRIRSQEQEKEVEQSVDEMKNDDEERLKLTKNTIKVEIDPHKSPFRQQDEDSENMSSPGSIGDFQDIYNHYRQSSGEWEQEMGIEKEAEEVPVKVRNDTVEQDLELREGTTDMVKPSATDDNKETKRHRRRNGWTWLNNKMSREDDNEENQGDDENEENVDSQRMELDNSKKHYISLFNGGEKTEVSNKEEMNNSSTSTATSQTRQKIEKTFANLFRRKPHHKHDASSSPSSSPSSSPSIPNNDAVHVRVRKSKKLGNKSGREPVEPIVLRNRPRPHRHHHSRHGSQKISVKTLKDSQPQQQIPLQPQLEGAIEIEKKEESDSESLPQLQPAVSVSSTKSNSRDREEEEAKKKNKKRSNTTEISNQQHSKHVQKENTDEQKAQLQAPAQEQVQTSVPVQASAPVQNSAPVQTSAPVEASAQTQAPAAPPLKHTSILPPRKLTFADVKKPDKPNSPVQFTDSAFGFPLPLLTVSTVIMFDHRLPINVERAIYRLSHLKLSNAKRGLREQVLLSNFMYAYLNLVNHTLYMEQVAHDKEQQQQQQQQP",102
